In general, Km refers to the substrate concentration at which the rate is half of its maximum. One may read the kcat as the number of substrate molecules converted per active site and unit of time at saturation.

Positions count from the first letter of the chain named. Names may count otherwise.

Six molecules from PMC5818171, “The role of conserved residues in Fdc decarboxylase in prenylated flavin mononucleotide oxidative maturation, cofactor isomerization, and catalysis” (The Journal of Biological Chemistry, 2017) can be followed below.

Data set [1] deals with O=C(O)/C=C/c1ccccc1. The data set can be described thus: purified protein. The conditions noted are these: 50 mM KCl, 50 mM NaPi, pH 6, 25 °C, prFMN holo-enzyme.
Data set [2] addresses A. niger Fdc1 (Aspergillus niger, UniProt A2QHE5). The conditions noted are these: purified and crystallized in the dark.
Substrate in data set [3]: O=C(O)/C=C/c1ccccc1
The data set can be described thus: purified protein. The conditions noted are these: 50 mM KCl, 50 mM NaPi, pH 6, 25 °C, prFMN holo-enzyme. The source holds these as a separate data set.

For “A. niger Fdc1 (Aspergillus niger CBS 513.88; E282D)”, in data set [1], the Km came out at 50 ± 10 µM and the kcat is 0.63 ± 0.04 s⁻¹.
With `Cc1cc2c3c(c1C)C(C)(C)CC=[N+]3c1c(nc([O-])[nH]c1=O)N2C[C@H](O)[C@H](O)[C@H](O)COP(=O)(O)O` [prFMN^iminium], the crystal structure result in data set [2] is “the prFMN cofactor is exclusively in the iminium form”.
As for “A. niger Fdc1 (Aspergillus niger CBS 513.88)”, in data set [1], the Km amounted to 10.0 ± 0.6 µM and the kcat stood at 9.4 ± 0.1 s⁻¹.

B1: S. cerevisiae Fdc1 (Saccharomyces cerevisiae S288C) (protein)
chain: MRKLNPALEFRDFIQVLKDEDDLIEITEEIDPNLEVGAIMRKAYESHLPAPLFKNLKGASKDLFSILGCPAGLRSKEKGDHGRIAHHLGLDPKTTIKEIIDYLLECKEKEPLPPITVPVSSAPCKTHILSEEKIHLQSLPTPYLHVSDGGKYLQTYGMWILQTPDKKWTNWSIARGMVVDDKHITGLVIKPQHIRQIADSWAAIGKANEIPFALCFGVPPAAILVSSMPIPEGVSESDYVGAILGESVPVVKCETNDLMVPATSEMVFEGTLSLTDTHLEGPFGEMHGYVFKSQGHPCPLYTVKAMSYRDNAILPVSNPGLCTDETHTLIGSLVATEAKELAIESGLPILDAFMPYEAQALWLILKVDLKGLQALKTTPEEFCKKVGDIYFRTKVGFIVHEIILVADDIDIFNFKEVIWAYVTRHTPVADQMAFDDVTSFPLAPFVSQSSRSKTMKGGKCVTNCIFRQQYERSFDYITCNFEKGYPKGLVDKVNENWKRYGYK
Consider B1, for which, in data set [3], the Km worked out at 25.5 ± 3.6 µM and the kcat was 10.5 ± 0.4 s⁻¹.

B2: S. cerevisiae Fdc1 (Saccharomyces cerevisiae S288C; E285D) (protein)
chain: B1 chain with E285D
For B2, in data set [3], the Km came to 20.4 ± 3.6 µM and the catalytic constant (kcat) amounted to 0.28 ± 0.01 s⁻¹.

B3: S. cerevisiae Fdc1 (Saccharomyces cerevisiae S288C; E280D) (protein)
chain: B1 chain with E280D
As for B3, in data set [3], the Km was 8.6 ± 1.5 µM and the kcat was found to be 0.92 ± 0.03 s⁻¹.
